Article doi:10.1101/2024.03.17.585388

Biological target: NTD_GS_CTD (NP NTD and CTD joined by a 14 residue artificial linker, no tails) (SARS-CoV-2)
Assay: […]

Substance: NTD_GS_CTD (NP NTD and CTD joined by a 14 residue artificial linker, no tails) (domain or fragment)
- stoichiometry N: 2
